According to paper PMC4439613, “TRIP13 is a protein-remodeling AAA+ ATPase that catalyzes MAD2 conformation switching” (eLife, 2015):

T1: PCH-2 (Caenorhabditis elegans, UniProt Q09535)
T1 construct: full-length (424 residues), N-terminal His6 tag removed with TEV protease, E. coli Rosetta 2 (DE3) pLysS
T1 sequence (Q09535 1-424): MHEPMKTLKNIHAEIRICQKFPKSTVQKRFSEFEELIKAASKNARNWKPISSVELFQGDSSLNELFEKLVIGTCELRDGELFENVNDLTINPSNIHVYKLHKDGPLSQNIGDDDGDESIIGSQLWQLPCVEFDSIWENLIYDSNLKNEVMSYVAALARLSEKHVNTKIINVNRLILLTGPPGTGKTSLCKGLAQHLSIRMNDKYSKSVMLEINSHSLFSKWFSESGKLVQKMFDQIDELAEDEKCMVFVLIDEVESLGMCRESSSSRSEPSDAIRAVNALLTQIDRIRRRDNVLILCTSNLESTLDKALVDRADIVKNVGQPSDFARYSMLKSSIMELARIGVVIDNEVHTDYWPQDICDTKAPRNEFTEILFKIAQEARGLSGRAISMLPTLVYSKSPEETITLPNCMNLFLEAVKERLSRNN

T2: M. musculus TRIP13^E253Q (M. musculus, UniProt Q3UA06 1-432, E253Q)
T2 construct: TRIP13, M. musculus, full length, Walker B mutation E253Q; also called Walker B mutant; ATP hydrolysis-defective TRIP13; source: E. coli Rosetta 2 (DE3) pLysS, purified (Ni-NTA, Hitrap Q ion exchange, Superdex 200 SEC); not shown: His6, N-terminal, cleaved
T2 sequence (looked up): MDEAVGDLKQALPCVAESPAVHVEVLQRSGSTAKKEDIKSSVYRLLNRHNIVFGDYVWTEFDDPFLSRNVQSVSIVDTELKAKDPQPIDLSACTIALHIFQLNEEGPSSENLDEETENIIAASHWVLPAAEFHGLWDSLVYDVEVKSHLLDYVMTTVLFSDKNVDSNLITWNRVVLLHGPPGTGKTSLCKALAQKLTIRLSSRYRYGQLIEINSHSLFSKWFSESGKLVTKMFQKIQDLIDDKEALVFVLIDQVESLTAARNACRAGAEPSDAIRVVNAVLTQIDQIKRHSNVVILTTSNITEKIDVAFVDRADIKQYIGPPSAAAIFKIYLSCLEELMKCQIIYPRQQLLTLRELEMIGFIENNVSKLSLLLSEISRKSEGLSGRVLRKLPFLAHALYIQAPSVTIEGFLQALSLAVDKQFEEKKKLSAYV

B1: M. musculus p31(comet):C-MAD2^R133A complex (complex)
chain 1: MAASGEEDMSELSPAAAPNLDWYEKPEETHAPEVDLETVIPPAQEPSNPAEPFCPRDLVPVVFPGPVSQEDCCQFTCELLKHILYQRHQLPLPYEQLKHFYRKVPQAEDTARKKAWLATEARNRKCQQALAELESVLSHLRDFFARTLVPQVLILLGGNALSPKEFYELDLSRLAPFGVDQGLNTAACLRRLFRAIFLADPFSELQTPPLMGTIVMVQGHRDCGEDWFQPKLNYRVPSRGHKLTVTLSCGRPSVPAMASEDYIWFQAPVTLKGFHE
chain 2: MAQQLAREQGITLRGSAEIVAEFFSFGINSILYQRGIYPSETFTRVQKYGLTLLTTTDPELIKYLNNVVEQLKEWLYKCSVQKLVVVISNIESGEVLERWQFDIECDKTAKEEGVRREKSQKAIQDEIRSVIAQITATVTFLPLLEVSCSFDLLIYTDKDLVVPEKWEESGPQFITNCEEVRLRSFTTTIHKVNSMVAYKTPVND
notes: p31(comet), M. musculus, full length; MAD2, M. musculus, full length, R133A, closed conformer; Heterodimer of m12 and m9; also called p31(comet):MAD2; source: formed from separately purified proteins (E. coli Rosetta 2 (DE3) pLysS); not shown: His6, N-terminal, cleaved; copies: 1 + 1

Tests used:
PCH-2 = target: T1, PCH-2; assay: X-ray crystal structure, […] Å; format: binding; conditions: ATPase active site of chains B and E; ADP co-purified, no nucleotide added
M. musculus TRIP13^E253Q [1] = target: T2, M. musculus TRIP13^E253Q; assay: SEC-MALS; TRIP13^E253Q with p31(comet) and C-MAD2^R133A, protocol as for the size exclusion analysis; conditions: both partners purified
M. musculus TRIP13^E253Q [2] = target: T2, M. musculus TRIP13^E253Q; assay: SEC; equimolar (10 nanomoles each) TRIP13^E253Q, p31(comet) and C-MAD2^R133A in 300 μl, 20 mM Tris-HCl pH 7.5, 300 mM NaCl, 2 mM ATP, on ice 30 min; Superdex 200 Increase 10/300 GL with 0.1 mM ATP; Coomassie gels of fractions; conditions: both partners purified

Row | Molecule | X-ray crystal structure, 2.3 Å (PCH-2) | stoichiometry N (M. musculus TRIP13^E253Q [1]) [copy per TRIP13 hexamer] | stoichiometry N (M. musculus TRIP13^E253Q [2])
1 | Nc1ncnc2c1ncn2[C@@H]1O[C@H](COP(=O)(O)OP(=O)(O)O)[C@@H](O)[C@H]1O [ADP] | two subunits in the hexamer (chains B and E) are bound to ADP | – | –
2 | B1 | – | ~1 | ~6 TRIP13^E253Q : p31(comet):MAD2 (molar ratio)
